The values that follow are results of earlier work, collected in PMC3924328, “Structure of the S100A4/myosin-IIA complex” (BMC Structural Biology, 2013).

This data set addresses myosin-IIA 1904-1927 (Homo sapiens) (UniProt P35579). Description: fluorescence anisotropy.

S100A4, sequence (P26447 2-101): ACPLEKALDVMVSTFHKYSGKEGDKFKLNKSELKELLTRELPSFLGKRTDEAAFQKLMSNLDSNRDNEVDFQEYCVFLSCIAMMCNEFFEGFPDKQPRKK
myosin-IIA 1904-1927 (Homo sapiens), sequence (P35579 1904-1927): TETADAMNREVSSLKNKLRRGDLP

Regarding S100A4 (from UniProt P26447), the equilibrium dissociation constant (Kd) was 260 nM.

In general, Kd refers to the concentration at which binding is half-saturated.
